T1: recombinant human CEACAM-1/CD66a protein (R&D systems; Cat. No. 2244-CM) (human, UniProt P13688 35-428)
T1 construct: Bought protein; captured on anti-His (His1K) biosensors in the Octet assay, so it carries a His tag; also called HCCM1; recombinant CEACAM-1/CD66a protein
T1 sequence (looked up): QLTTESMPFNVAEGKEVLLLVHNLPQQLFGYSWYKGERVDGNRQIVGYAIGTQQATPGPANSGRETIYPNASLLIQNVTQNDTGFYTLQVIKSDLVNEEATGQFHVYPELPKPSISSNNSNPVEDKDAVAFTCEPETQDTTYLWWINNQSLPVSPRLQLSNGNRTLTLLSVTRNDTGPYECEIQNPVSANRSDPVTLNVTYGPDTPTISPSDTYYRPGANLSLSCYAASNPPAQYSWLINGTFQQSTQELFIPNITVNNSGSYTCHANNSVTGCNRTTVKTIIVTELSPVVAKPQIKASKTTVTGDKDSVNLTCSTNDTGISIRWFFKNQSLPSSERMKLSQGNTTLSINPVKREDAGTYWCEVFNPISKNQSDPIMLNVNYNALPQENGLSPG

T2: CEACAM3 expressed on the surface of HEK293 cells (human, UniProt P40198 35-252)
T2 construct: whole, on cells; GFP-tagged clone; also called CEACAM3-GFP
T2 sequence (looked up): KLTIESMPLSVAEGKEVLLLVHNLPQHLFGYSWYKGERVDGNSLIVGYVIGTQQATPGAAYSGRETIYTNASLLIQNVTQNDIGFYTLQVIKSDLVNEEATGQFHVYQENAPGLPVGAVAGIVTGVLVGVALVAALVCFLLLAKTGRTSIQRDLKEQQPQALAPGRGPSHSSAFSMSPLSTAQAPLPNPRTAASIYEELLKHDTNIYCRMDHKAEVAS


biological target: T1, recombinant human CEACAM-1/CD66a …; experiment: ELISA on coated antigen (0.25 µg/ml), antibody 3 µg/ml, HRP anti-human IgG Fc, OD450
Description: All of the recombinant human CEACAM-1/CD66a protein (R&D systems; Cat No. 2244-CM, HCCM1), recombinant human CEACAM-5/CD66e protein (R&D systems; Cat. No. 4128-CM, HCCM5), recombinant human CEACAM-6/CD66c protein (R&D systems; Cat. No. 3934-CM, HCCM6), recombinant human CEACAM-3/CD66d protein (Sino Biological; Cat. No. 11933-H08H, HCCM3), human B7-H5/Gi24/VISTA protein (Sino Biological; Cat. No. 13482-H08H, HVISTA), recombinant human CEACAM-1/CD66a protein Bulk (R&D systems; Cat. No. 2244-CM, HCCM1 (bulk)), recombinant human CEACAM1-N domain-Kappa protein (Mogam, in-house production, HCCM1-N domain-kappa), and BSA protein (2.5 μg each) were dissolved in 10 ml of PBS, respectively, and dispensed into a 96-well plate at 100 μl/well, which was incubated at 4° C. overnight. Thereafter, each well was treated with 300 μl of 1% (v/v) bovine serum albumin, and incubated at 37° C. for 1 hour.
The diluted antibodies were dispensed into each well coated with each protein at 100 μl/well, and incubated at 37° C. for 1 hour. Then, each well was washed 3 times with a washing buffer prepared by diluting 10 μl of Tween 20 (Sigma-Aldrich; Cat. No. P9146) in 990 μl of PBS. Thereafter, 2 μl of HRP-conjugated human anti-IgG-Fc antibody (anti-human IgG Fc, Sigma Cat. No. A0170) was diluted in 10 ml of PBS, added to the wells at 100 μl/well, and incubated for 1 hour.
After completion of the reaction, the wells were washed three times with the washing buffer, and 100 μl of TMB solution was added to each well to induce color development. Then, 100 μl of 2 M H₂SO₄ was added to each well to stop the reaction, and the absorbance was measured at a wavelength of 450 nm.

binding result | Binder
binds | C19 (antibody, human IgG4 S228P, lambda, V domains shown) VH: EVQLLESGGGLVQPGGSLRLSCAASGFTFSGYAMSWVRQAPGKGLEWVSGIYHDGGSTYYADSVKGRFTISRDNSKNTLYLQMNSLRAEDTAVYYCARVTVLCTTYGCSSYDGMDVWGQGTLVTVSS VL: not shown
binds | C18 (antibody, human IgG4 S228P, lambda, V domains shown) VH: EVQLLESGGGLVQPGGSLRLSCAASGFTFSNYDMSWVRQAPGKGLEWVSGISHSSGSKYYADSVKGRFTISRDNSKNTLYLQMNSLRAEDTAVYYCARDPLPCLIPKCSYYYAMDVWGQGTLVTVSS VL: QSVLTQPPSAPGTPGQRVTISCSGSSSNIGSNAVTWYQQLPGTAPKLLIYADSHRPSGVPDRFSGSKSGTSASLAISGLRSEDEADYYCGSWDDSLNAYVFGGGTKLTVLG
binds | C22 (antibody, human IgG4 S228P, lambda, V domains shown) VH: EVQLLESGGGLVQPGGSLRLSCAASGFTFSDYDMSWVRQAPGKGLEWVSMIYSGSSSKYYADSVKGRFTISRDNSKNTLYLQMNSLRAEDTAVYYCAKAPLPFYFRPKSYYYAMDVWGQGTLVTVSS VL: QSVLTQPPSASGTPGQRVTISCSGSSSNIGSNNVTWYQQLPGTAPKLLIYANSHRPSGVPDRFSGSKSGTSASLAISGLRSEDEADYYCGSWDSSLNAYVFGGGTKLTVLG

biological target: T2, CEACAM3 expressed on the surface of …; experiment: flow cytometry on transfected HEK293 cells (GFP+ gate), PE goat anti-huIgG4 [b]
Description: HEK293 cells were added with 10 μg of each pEF1α-AcGFP-N1 vector (Clontech, Cat. No. 631973) as a control vector, CEACAM1, CEACAM3, CEACAM5, CEACAM6 and CEACAM8 plasmid vectors, followed by transfection under the condition of pulse voltage 1,100 V, pulse width 20 ms and pulse number 2. After 48 hours of transfection, GFP expression was confirmed by fluorescence microscopy. The cells were detached by treatment with 1 ml of TrypLE Express Solution (ThermoFisher Scientific; Cat. No. 12605010), resuspended in 9 ml of DMEM (Gibco, Cat. No. 11995-065) supplemented with 10% (v/v) FBS, and centrifuged at 1,200 rpm for 5 minutes, to remove the resulting supernatant.
After washing once with PBS, the cells were resuspended in a FACS buffer to obtain a concentration of 5×10⁵ cells/100 μl. Human Fc Block solution was added to the samples at 1 μl/sample, which were incubated at 4° C. for 10 minutes. The cells were treated with hulgG4 or one of the anti-CEACAM1 clones listed at 1 μg/5×10⁵ cells, which were incubated at 4° C. for 10 minutes. After washing with FACS buffer, the PE-labeled goat-anti-huIgG4 antibodies were diluted at a ratio of 1:200 in a FACS buffer, and added to the samples at 100 μl/sample, which were incubated at 4° C. for 30 minutes. The samples were filled with a FACS buffer up to 200 μl, and then centrifuged at 1,200 rpm for 5 minutes, to remove the resulting supernatant. The fixation buffer (300 μl) was added to resuspend the cells. The cells expressing GFP were selected in the FACS LSR-Fortessa device, and the expression of CEACAM members were evaluated respectively using the antibody specific to each CEACAM member (Table 3). Also, the binding of anti-CEACAM1 antibodies was evaluated by PE fluorescence channel and analyzed using the FlowJo software.

binding result | Binder
no binding | 4R9 (antibody, human IgG4 S228P, lambda, V domains shown, also called C25-derived clone 4R9) VH: EVQLLESGGGLVQPGGSLRLSCAASGFTFSNYAMSWVRQAPGKGLEWVSVISHGGGSIYYADSVKGRLTISRDNSKNTLYLQMNSLRAEDTAVYYCARDPTKGYAPTFDYWGQGTLVTVSS VL: QSVLTQPPSASGTPGQRVTISCSGSSSNIGNNYVSWYQQLPGTAPKLLIYADSRRPSGVPDRFSGSKSGTSASLAISGLRSEDEADYYCGAWDLSLNGYVFGGGTKLTVLG
no binding | 4R26 (antibody, human IgG4 S228P, lambda, V domains shown, also called C25-derived clone 4R26) VH: EVQLLESGGGLVQPGGSLRLSCAASGFTFSNYAMSWVRQAPGKGLEWVSVISHGGGSIYYADSVKGRLTISRDNSKNTLYLQMNSLRAEDTAVYYCARDPTKGYAPTFDYWGQGTLVTVSS VL: QSVLTQPPSASGTPGQRVTISCSGSSSNIGNNYVSWYQQLPGTAPKLLIYADSKRLSGVPDRFSGSKSGTSASLAISGLRSEDEADYYCGAWDGRLNGYVFGGGTKLTVLG
no binding | 4R9_H2-2 (antibody, human IgG4 S228P, lambda, V domains shown, also called C25-derived clone 4R9_H2-2) VH: EVQLLESGGGLVQPGGSLRLSCAASGFTFSNYAMSWVRQAPGKGLEWVSVISHGGGSIYYADSVKGRLTISRDNSKNTLYLQMNSLRAEDTAVYYCARDPTKGYAPLFDYWGQGTLVTVSS VL: QSVLTQPPSASGTPGQRVTISCSGSSSNIGNNYVSWYQQLPGTAPKLLIYADSRRPSGVPDRFSGSKSGTSASLAISGLRSEDEADYYCGAWDLSLNGYVFGGGTKLTVLG
no binding | 4R9_H4-n20 (antibody, human IgG4 S228P, lambda, V domains shown, also called C25-derived clone 4R9_H4-n20) VH: EVQLLESGGGLVQPGGSLRLSCAASGFNFSNYAMSWVRQAPGKGLEWVSVISHGGGSIYYADSVKGRLTISRDNSKNTLYLQMNSLRAEDTAVYYCARDPTKGYAPTFDYWGQGTLVTVSS VL: QSVLTQPPSASGTPGQRVTISCSGSSSNIGNNYVSWYQQLPGTAPKLLIYADSRRPSGVPDRFSGSKSGTSASLAISGLRSEDEADYYCGAWDLSLNGYVFGGGTKLTVLG
